Measurements reported in patent publication US20220332804A1 (CSL INNOVATION, published 2022).
Residue numbers refer to the chain shown, from its start.

Experiments:
Test in all cases: SPR, antibody captured, C2 as analyte;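 note: biacore SPR at 37 °C, anti-C2 mAbs captured via goat anti-human IgG on CM5 chips, double-referenced sensorgrams fit to a 1:1 kinetic or steady-state model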
[1] = target: T1, human C2 H331A (human, UniProt P06681 21-752)
T1 sequence: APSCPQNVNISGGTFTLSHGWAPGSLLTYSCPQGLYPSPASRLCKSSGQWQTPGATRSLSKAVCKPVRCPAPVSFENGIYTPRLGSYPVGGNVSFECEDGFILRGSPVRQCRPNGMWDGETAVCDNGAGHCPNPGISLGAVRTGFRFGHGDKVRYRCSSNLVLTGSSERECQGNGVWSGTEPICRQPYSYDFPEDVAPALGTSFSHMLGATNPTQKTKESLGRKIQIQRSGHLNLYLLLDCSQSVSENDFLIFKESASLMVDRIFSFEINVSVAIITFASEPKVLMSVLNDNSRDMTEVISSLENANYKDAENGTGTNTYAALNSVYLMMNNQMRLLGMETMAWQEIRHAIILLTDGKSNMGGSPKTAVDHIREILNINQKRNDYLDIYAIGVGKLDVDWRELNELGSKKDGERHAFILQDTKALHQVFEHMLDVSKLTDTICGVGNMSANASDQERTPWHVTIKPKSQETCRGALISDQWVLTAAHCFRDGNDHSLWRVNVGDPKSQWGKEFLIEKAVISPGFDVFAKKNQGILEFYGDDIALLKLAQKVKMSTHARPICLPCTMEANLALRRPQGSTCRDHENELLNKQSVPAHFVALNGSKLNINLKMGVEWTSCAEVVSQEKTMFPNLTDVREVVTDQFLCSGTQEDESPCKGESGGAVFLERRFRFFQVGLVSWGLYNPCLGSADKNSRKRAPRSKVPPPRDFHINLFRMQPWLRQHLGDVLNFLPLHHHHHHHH

[2] = target: T2, human C2 T483A (human, UniProt P06681 21-752)
T2 sequence: T1 sequence with A311H, T463A

[3] = target: T3, human C2 N327A (human, UniProt P06681 21-752)
T3 sequence: T1 sequence with N307A, A311H

[4] = target: T4, human C2 Y558A (human, UniProt P06681 21-752)
T4 sequence: T1 sequence with A311H, Y538A

B1: RF16-226 (antibody, human IgG4 S228P, lambda)
heavy: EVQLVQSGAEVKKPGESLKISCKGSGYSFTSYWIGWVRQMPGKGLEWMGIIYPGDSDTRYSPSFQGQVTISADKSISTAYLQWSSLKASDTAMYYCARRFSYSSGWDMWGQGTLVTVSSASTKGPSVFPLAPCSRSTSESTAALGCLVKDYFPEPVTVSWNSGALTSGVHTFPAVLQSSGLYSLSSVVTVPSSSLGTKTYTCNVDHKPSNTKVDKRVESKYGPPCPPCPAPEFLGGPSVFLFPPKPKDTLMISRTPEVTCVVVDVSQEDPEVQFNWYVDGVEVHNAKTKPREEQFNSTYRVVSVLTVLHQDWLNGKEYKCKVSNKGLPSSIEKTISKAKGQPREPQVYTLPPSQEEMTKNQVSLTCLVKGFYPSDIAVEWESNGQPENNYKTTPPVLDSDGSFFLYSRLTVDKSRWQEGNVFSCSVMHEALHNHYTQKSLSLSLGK
light: SYELTQPPSVSVSPGQTARITCSGDALTSKYVAWYQQKSGLAPLLVIYEDTRRPSGIPAKFSGSSSGSVATLTISGAHGDDEADYYCYSTDASGHQRVFGGGTKLTVLSQPKAAPSVTLFPPSSEELQANKATLVCLISDFYPGAVTVAWKADGSPVKAGVETTKPSKQSNNKYAASSYLSLTPEQWKSHRSYSCQVTHEGSTVEKTVAPTECS
notes: pH-dependent anti-C2 antibody from a phage display library; also called WT
binding result [1]: no binding | Kd [2]: 5.5 nM | Kd [3]: 67.4 nM | Kd [4]: 158 nM
